1 molecule from US20140271602, “NUCLEOTIDE-SPECIFIC RECOGNITION SEQUENCES FOR DESIGNER TAL EFFECTORS” (THE BROAD INSTITUTE INC., published 2014) can be followed below.

Data set [1] addresses T1, TALE1-NN (CACNA1C site 1 activator) (Xanthomonas (engineered), UniProt P14727 SEQ:1-983).
T1 chain: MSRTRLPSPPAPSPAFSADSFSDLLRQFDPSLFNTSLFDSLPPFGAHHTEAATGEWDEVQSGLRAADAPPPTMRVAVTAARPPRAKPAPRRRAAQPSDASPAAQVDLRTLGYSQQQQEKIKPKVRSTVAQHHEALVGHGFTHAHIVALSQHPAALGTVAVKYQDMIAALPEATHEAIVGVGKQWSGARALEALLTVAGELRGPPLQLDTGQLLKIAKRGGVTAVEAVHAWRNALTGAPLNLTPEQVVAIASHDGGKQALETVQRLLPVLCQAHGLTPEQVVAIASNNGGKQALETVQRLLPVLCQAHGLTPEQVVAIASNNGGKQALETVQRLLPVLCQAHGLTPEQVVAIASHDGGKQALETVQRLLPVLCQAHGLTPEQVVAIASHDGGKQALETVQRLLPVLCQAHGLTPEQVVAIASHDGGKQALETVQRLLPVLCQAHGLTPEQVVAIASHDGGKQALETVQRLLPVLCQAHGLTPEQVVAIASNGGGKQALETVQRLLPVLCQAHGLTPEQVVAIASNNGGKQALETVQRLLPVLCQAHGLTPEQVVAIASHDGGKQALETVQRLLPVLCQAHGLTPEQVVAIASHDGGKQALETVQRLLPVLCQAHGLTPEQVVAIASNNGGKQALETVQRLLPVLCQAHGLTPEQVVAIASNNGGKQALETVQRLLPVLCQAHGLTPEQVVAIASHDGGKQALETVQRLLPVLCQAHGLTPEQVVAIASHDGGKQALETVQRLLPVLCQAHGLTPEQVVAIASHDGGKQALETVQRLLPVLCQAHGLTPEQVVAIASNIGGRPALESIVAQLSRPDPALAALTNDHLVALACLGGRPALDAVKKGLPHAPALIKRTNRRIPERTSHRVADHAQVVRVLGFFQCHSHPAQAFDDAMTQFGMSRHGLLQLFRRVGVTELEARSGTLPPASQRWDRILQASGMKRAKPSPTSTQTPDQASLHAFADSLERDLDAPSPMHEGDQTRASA
Briefly: cell_activity; HEK 293FT, endogenous CACNA1C mRNA. The settings on record: tags: VP64, 2A-GFP. Here is the method:
Changes in mRNA are measured using qRT-PCR as described previously. VP64, VP64 transcription activation domain. All results are collected from three independent experiments in HEK 293FT cells. Error bars indicate s.e.m.; n=3. FIG. 19(b) discloses SEQ ID NOS 63 and 62, respectively, in order of appearance.
Using qRT-PCR, the performance of NN, NK, NH, and HN for targeting endogenous genomic sequences was further compared. The ability of NN-, NK-, NH-, and HN-TALEs to activate CACNA1C transcription by targeting the two endogenous target sites was tested (FIG. 19b). […] Both TALE 1-NH and TALE2-NH were able to achieve similar levels of transcriptional activation as TALE1-NN and TALE2-NN (˜5 and ˜3 folds of activation for targets 1 and 2, respectively) and twice more than TALE-NK and TALE2-NK (FIG. 19b). […] On the other hand, based on all the results from specificity and endogenous activity tests, the RVD NH seems to be a more suitable substitute for NN than NK when higher targeting specificity is desired, as it also provides higher levels of biological activity. Further testing using additional endogenous genomic targets helps validate the broad utility of NH as a highly specific G-targeting RVD.
For the endogenous gene transcriptional level assay to test the biological activities of TALE activators and TALE repressors, HEK 293FT cells were seeded into 24-well plates. […]

Another data set addresses T2, TALE1-NN repressor (Xanthomonas (engineered), UniProt P14727 SEQ:1-983).
T2 chain: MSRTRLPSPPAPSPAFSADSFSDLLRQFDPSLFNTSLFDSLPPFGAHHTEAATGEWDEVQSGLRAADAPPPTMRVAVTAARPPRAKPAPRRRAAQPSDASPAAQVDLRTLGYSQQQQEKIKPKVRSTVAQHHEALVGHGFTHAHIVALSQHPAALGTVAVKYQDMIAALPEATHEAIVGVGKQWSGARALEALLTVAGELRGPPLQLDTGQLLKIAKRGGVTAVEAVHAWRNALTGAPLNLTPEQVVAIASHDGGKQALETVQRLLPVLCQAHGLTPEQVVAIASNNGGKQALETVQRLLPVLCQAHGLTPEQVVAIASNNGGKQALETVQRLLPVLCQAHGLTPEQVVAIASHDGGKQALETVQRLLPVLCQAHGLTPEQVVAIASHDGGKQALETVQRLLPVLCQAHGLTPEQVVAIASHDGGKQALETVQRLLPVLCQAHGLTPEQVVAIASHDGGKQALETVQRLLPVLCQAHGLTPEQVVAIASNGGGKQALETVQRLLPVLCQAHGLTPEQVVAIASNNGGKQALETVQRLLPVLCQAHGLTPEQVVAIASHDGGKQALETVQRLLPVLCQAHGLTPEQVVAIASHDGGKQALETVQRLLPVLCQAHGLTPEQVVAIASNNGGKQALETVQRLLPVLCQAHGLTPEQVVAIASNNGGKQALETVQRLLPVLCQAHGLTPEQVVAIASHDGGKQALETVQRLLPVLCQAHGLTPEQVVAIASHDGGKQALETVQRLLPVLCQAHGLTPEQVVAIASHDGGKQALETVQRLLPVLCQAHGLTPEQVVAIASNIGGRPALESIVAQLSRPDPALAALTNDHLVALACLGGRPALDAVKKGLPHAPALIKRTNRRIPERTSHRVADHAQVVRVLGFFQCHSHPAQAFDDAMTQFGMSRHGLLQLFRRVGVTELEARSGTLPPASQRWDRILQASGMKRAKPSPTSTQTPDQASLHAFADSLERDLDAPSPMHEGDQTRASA
Put plainly: cell_activity; endogenous CACNA1C mRNA. The settings on record: tags: SID.

The target of a further data set is T3, TALE1-NH repressor (Xanthomonas (engineered), UniProt P14727 SEQ:1-983).
T3 chain: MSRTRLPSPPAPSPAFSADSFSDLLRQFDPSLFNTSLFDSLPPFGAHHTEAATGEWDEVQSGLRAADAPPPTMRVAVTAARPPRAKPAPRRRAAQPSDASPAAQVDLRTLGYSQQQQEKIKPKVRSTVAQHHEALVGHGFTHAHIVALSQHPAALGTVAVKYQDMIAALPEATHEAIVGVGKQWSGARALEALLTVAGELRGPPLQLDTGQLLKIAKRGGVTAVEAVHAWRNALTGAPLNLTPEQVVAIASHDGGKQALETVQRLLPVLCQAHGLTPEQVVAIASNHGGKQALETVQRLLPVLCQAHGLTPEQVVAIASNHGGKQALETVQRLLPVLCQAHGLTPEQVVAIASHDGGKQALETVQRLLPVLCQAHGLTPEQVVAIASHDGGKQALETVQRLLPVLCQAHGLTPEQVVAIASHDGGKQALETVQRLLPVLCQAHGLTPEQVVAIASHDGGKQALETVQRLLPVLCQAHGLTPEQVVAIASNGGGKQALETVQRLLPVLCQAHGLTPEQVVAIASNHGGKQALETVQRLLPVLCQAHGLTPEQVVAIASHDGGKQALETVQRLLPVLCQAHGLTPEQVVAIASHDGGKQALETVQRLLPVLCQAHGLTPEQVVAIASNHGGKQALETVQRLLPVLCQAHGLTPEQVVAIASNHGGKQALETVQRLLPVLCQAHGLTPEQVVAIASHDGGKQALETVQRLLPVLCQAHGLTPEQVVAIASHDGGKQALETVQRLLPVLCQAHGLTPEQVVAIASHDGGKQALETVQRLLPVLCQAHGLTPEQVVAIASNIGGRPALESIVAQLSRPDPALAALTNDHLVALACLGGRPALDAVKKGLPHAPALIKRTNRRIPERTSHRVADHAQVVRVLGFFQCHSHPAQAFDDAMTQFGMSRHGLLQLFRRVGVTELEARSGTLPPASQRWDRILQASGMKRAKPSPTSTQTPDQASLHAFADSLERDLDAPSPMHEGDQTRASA
Put plainly: cell_activity; endogenous CACNA1C mRNA. The settings on record: tags: SID.

Data set [2] deals with T4, TALE1-NH (CACNA1C site 1 activator) (Xanthomonas (engineered), UniProt P14727 SEQ:1-983).
T4 chain: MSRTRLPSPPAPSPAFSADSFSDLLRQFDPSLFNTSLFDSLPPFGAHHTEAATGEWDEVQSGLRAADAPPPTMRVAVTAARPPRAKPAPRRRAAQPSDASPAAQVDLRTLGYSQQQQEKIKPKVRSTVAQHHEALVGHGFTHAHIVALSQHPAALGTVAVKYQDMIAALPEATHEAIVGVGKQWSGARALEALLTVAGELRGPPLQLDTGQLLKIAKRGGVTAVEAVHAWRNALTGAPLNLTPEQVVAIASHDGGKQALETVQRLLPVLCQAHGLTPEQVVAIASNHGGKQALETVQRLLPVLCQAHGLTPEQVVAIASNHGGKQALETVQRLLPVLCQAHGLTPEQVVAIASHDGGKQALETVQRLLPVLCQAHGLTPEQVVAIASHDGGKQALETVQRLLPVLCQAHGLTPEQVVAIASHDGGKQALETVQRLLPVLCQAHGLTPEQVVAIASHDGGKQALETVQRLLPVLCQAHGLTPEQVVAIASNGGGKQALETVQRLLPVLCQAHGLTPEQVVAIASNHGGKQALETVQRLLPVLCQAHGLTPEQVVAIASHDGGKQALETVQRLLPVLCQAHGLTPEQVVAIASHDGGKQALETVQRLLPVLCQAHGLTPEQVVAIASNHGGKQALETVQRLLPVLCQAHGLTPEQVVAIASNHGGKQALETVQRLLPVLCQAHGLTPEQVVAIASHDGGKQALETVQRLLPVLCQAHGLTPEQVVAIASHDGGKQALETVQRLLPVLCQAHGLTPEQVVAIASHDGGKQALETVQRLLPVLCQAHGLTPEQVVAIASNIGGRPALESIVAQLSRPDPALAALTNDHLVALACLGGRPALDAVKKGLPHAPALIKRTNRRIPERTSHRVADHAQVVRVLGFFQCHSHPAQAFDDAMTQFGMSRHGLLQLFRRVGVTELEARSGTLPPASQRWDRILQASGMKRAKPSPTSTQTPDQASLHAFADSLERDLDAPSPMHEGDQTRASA
Briefly: cell_activity; HEK 293FT, endogenous CACNA1C mRNA; reporter 1.9x that of NK. The settings on record: tags: VP64, 2A-GFP.

B1: CACNA1C site 1 (dsDNA)
DNA 1: TCGGCCCCTGCCGGCCCA
DNA 2: TGGGCCGGCAGGGGCCGA
For the molecule B1, the activity in data set [1] was ~5 fold activation; with TALE1-NN repressor, ~4 fold repression; in the data set with TALE1-NH repressor it was ~4 fold repression; in data set [2], ~5 fold activation.
